Data on two molecules can be found in patent US20240352070A1 (ECOLE POLYTECHNIQUE FEDERALE DE LAUSANNE EPFL, published 2024).

Square brackets hold non-standard residues; d marks the D form. Ends that are not written are not given here. Michael acceptor = not defined here

Assay [1] deals with purified cathepsin B (CTSB), purchased from RndSystems (UniProt P07858 80-333). The assay can be described thus: cell-based or functional assay.
Assay [2] has as its target human cathepsin S wild-type, amino acids 17 to 331, C-terminal His-tag (CTSS-His) (human, UniProt P25774 115-331). The experiment in a line: cell-based or functional assay.

human cathepsin S wild-type, amino acids 17 to 331, C-terminal His-tag (CTSS-His), sequence (P25774 115-331 limits assumed, form in doubt): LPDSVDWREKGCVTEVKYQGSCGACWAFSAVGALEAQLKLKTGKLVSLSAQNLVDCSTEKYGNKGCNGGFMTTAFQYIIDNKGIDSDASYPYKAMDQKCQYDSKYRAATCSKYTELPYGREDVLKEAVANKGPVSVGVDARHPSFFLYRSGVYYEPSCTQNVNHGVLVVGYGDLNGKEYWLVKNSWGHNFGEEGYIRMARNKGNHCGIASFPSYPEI

B1: Non-natural peptide inhibitor D5, KRRY(Y)WMW (peptide)
peptide: KRRY[Michael acceptor]WMW
modifications: not fully specified; reading uncertain
On to B1, for which the “IC50, CTSB activity, FRET assay dose-response” value in assay [1] was 61.9 nM. In assay [2], the “IC50, CTSS activity, FRET assay dose-response” value amounted to 86600 nM.

B2: Non-natural peptide inhibitor C10, KHRM(Y)VMW (peptide)
peptide: KHRM[Michael acceptor]VMW
modifications: not fully specified; reading uncertain
Take B2: in assay [2], the “IC50, CTSS activity, FRET assay dose-response” value was found to be 49.3 nM.
